The chains are these.
B1: unrelated peptide CS5, derived from fibronectin (GEEIQIGHIPREDVDYHLYP) (peptide)
peptide: GEEIQIGHIPREDVDYHLYP
B2: scFv TS-A12/22 (scFv, not shown: small tags and cut ends)
scFv: DIRMTQSPDSLAVSLGERATINCKSSQSVLYSSNNKNYLAWYQQKPGQPPKLLIYWASTRESGVPDRFSGSGSGTDFTLTISSLQAEDVAVYYCQQYYSTPQLTFGGRTKVDIKSGGSTITSYNVYYTKLSSSGTQVQLQQSEGGVVQPGRSLRLSCAASGFTFSSYGMNWVRQAPGKGLEWVSYISSSSSTIYYADSVKGRFTISRDNSKNTLYLQMNSLRAEDTAVYYCARGPGMDVWGQGTTVTVSS
notes: Obtained from TS-A12 by VL chain shuffling; also called TS-A12/22 antibody

Experiment [1] addresses B2. Description: competitive ELISA: scFv TSA-12/22 (1 µg/ml) pre-incubated with the peptide, then binding to C5 on solid phase, given as % of the saline control. The text has this:
(§1) This peptide corresponds to region 727-744 of the mature protein and comprises the cleavage site of C5 convertase (indicated by the arrow) between glycine 733 and arginine 734 according to SwissProt numbering for human C5 (SEQ ID P01031). The peptide was used in a competitive ELISA assay on the C5 protein on solid phase. […] (SEQ ID No. 16 of sequence listing) corresponding to a fibronectin derived peptide termed CS5.
(ELISA stands for enzyme-linked immunosorbent assay.)

Experiment [2] addresses T1, C5 beta chain (human, UniProt P01031 19-673, reduced with DTT and treated with iodoacetamide (alkylated cysteines)).
T1 construct: domain: beta chain; Separated from purified C5 by reduction, alkylation and gel filtration on Superose 12; also called beta sub-unit of C5; C5 beta subunit
T1 sequence (looked up): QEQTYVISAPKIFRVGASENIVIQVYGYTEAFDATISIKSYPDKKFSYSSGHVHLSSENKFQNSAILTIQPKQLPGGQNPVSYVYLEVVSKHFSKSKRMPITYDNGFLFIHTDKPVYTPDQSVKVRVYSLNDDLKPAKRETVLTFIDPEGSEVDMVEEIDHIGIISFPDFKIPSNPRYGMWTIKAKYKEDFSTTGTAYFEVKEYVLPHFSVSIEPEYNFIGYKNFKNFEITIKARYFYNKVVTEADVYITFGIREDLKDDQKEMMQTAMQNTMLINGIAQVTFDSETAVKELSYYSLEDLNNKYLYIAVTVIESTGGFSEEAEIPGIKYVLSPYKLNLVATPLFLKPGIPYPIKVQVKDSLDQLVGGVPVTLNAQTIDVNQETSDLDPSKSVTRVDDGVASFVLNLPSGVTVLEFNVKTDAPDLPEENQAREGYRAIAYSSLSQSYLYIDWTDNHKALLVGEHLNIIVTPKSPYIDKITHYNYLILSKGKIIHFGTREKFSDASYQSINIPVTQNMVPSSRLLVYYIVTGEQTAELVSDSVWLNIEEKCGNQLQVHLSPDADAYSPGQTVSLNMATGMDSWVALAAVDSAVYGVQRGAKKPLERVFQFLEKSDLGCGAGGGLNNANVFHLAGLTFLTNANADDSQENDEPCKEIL
Description: Western blot. Background: In western blotting, separated proteins are transferred to a membrane and probed.
Description: Briefly the two subunits were electrophoresed in separate wells and transferred on nitrocellulose membranes. A solution containing Tris 50 mM pH 7.6, 0.5 M NaCl and 4% skimmed powder milk was used to block non-specific sites for 1 hour at 37° C. […] The enzymatic reaction was developed with blue tetrazolium and 5-bromo-4-chlorine-3-indolil phosphate (Sigma-Aldrich, 0.30 mg/ml) diluted in 0.1 M Tris-HCl pH 9.5 containing 0.1 M NaCl and 5 mM MgCl₂.

The target in experiment [3] is T2, C5 component of the complement system (purified C5) (human, UniProt P01031 19-673; P01031 678-1676).
T2 construct: domain: beta chain;domain: alpha chain; In haemolytic assays it was purified C5 or the C5 of human serum; also called factor C5; C5 antigen
T2 sequence (P01031 678-1676 limits assumed, one chain of several): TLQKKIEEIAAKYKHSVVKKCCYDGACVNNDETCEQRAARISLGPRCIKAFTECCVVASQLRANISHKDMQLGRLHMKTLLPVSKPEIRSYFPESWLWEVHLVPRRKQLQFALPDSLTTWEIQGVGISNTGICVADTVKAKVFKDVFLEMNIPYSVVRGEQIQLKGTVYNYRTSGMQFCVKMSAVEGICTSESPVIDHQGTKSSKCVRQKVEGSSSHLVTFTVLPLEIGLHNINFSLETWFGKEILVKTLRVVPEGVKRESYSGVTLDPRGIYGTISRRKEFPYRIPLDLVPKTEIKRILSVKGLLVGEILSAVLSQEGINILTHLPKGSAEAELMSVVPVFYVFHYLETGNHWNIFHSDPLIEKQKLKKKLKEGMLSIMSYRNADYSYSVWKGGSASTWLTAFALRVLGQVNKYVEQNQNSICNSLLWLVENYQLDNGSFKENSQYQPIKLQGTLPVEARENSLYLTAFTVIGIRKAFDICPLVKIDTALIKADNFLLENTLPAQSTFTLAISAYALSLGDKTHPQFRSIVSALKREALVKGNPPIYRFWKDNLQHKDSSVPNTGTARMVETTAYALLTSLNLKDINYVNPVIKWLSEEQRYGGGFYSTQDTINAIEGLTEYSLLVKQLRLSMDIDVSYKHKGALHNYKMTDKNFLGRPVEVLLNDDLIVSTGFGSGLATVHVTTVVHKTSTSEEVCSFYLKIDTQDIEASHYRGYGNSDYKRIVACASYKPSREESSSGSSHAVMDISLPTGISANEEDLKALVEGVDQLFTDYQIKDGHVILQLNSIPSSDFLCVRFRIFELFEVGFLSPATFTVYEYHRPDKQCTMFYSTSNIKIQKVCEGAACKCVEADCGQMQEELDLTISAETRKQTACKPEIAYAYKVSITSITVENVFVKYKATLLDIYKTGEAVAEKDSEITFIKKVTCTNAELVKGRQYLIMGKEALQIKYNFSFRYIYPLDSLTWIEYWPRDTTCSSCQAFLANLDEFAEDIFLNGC
Description: SPR, BIACORE 2000, C5 immobilised on the chip. On the technique in general: In SPR one partner is held on a chip, and binding of the other changes the refractive index at the surface.
Description: The microchip (CM5, Biacore) was prepared by direct conjugation of the C5 antigen with amines (20 μg/ml in 10 mM Sodium Acetate pH 4.5). The final level of immobilisation turned out to be approximately 1000 RU (Resonance Units). Association and dissociation of antibody molecules from the bio-chip were measured using an optical detection system (Surface Plasmon Resonance).
The analysis was carried out at 25° C., at a flow of 15 μl/min, using 4 different scFv concentrations in the range comprised between 100-300 nM, in PBS, 0.005% P20 (Biacore). The binding curves were interpolated 1:1 according to the model of Langmuir, using the dedicated software termed BIAevaluation (version 3.5) with correction for the mass transfer.

The target of experiment [4] is B1. Description: competitive ELISA: scFv pre-incubated with the peptide, binding to C5 on solid phase.
Description: as §1

As to B1, in experiment [1], the binding result is listed as “no binding (tested: 800 ng)”.

The term Kd denotes the concentration at which binding is half-saturated. Lower therefore signals higher affinity. Consider B2, for which the binding result is recorded as “no binding (tested: 100 ng of beta chain)” in experiment [2] and “no binding (tested: 800 ng)” in experiment [4]. The dissociation constant (Kd) in experiment [3] was 18 nM.
